Assay [1] concerns the target T1, biotinylated splitNanoluc1-8.
T1 chain: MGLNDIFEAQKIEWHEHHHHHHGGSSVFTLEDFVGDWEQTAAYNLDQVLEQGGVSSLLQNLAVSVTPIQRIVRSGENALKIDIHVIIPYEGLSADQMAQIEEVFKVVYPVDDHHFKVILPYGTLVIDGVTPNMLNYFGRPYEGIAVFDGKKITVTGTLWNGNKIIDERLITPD
As to the kind of experiment: mRNA display pull-down with biotinylated splitNanoluc1-8, qPCR; corrected with the display efficiency. A general note: Real-time PCR tracks product formation cycle by cycle.

Assay [2] has the same target. As to the kind of experiment: mRNA display pull-down: 33 nM Display molecule with 1 µM biotinylated splitNanoluc1-8, streptavidin beads, TEV elution, qPCR.
Assay [3] concerns the target anti-ubiquitin antibody (Mouse IgG1 monoclonal antibody; clone name FK2). As to the kind of experiment: mRNA display pull-down on anti-ubiquitin antibody (FK2) magnetic beads, qPCR; corrected with the display efficiency.
Assay [4] shares this target. As to the kind of experiment: mRNA display pull-down on anti-ubiquitin antibody (FK2) magnetic beads, qPCR; display molecule at 0.4 µM.
The target in assay [5] is biotinylated GFP1-9. Put plainly: mRNA display pull-down with biotinylated GFP1-9, qPCR.
In assay [6] the target is biotinylated GFP1-9. As to the kind of experiment: mRNA display pull-down with biotinylated GFP1-9, qPCR; corrected with the display efficiency.
In assay [7] the target is biotinylated GFP1-9. Put plainly: mRNA display pull-down: 0.42 µM Display molecule with 1 µM biotinylated GFP1-9, streptavidin beads, TEV elution, qPCR.
The target of assay [8] is anti-ubiquitin antibody (Mouse IgG1 monoclonal antibody; clone name FK2). As to the kind of experiment: mRNA display pull-down on anti-ubiquitin antibody (FK2) magnetic beads, heat elution, qPCR.

No end group written: not given here. puromycin linker = puromycin spacer joining the C-terminus of the translated peptide to its mRNA (mRNA display); mRNA = not defined here

B1: splitNanoluc9-10 fusion peptide (peptide)
peptide: MGSMLFRVTINSGGGSGGGGSGVSGWRLFKKISGSGSGSGSENLYFQGKK
modifications: not checked
In assay [1], B1 showed a Recovery rate (%) of 33.2%. Also, in assay [2], the Apparent recovery rate (%) amounted to 12.6% and the Recovered nucleic acid amount (molecules) came to 3.45e+09 molecules.

B2: Epep-splitUb(N) (protein)
chain: MKVSALENEVSALEKEVSVLEKEVSALEKEVRALEKGSGSGSGSMQIFVKTLTGKTATLEVEPSDTIENVKAKIQDKEGIPGSGSGSGSKK
modifications: C-terminus joined through a puromycin linker to its own mRNA (reverse transcribed before the assay)
For the molecule B2, the Recovery rate (%) in assay [3] was found to be 0.0004%. Also, in assay [4], the Apparent recovery rate (%) was determined as 0.0001% and the Recovered nucleic acid amount (molecules) amounted to 377000 molecules.

B3: GFP11 (peptide)
peptide: MEKRDHMVLLEYVTAAGITDASGSGSGSGSKK
modifications: not checked
With B3, the fold lower recovery rate than the GFP10-11 fusion peptide in assay [5] was 1000 times. In assay [6], this molecule yielded a Recovery rate (%) of 0.012%. Moreover, in assay [7], the Apparent recovery rate (%) was determined as 0.0109% and the Recovered nucleic acid amount (molecules) stood at 8.95e+07 molecules.

B4: GFP10 (peptide)
peptide: MDLPDDHYLSTQTILLKDLNGSGSGSGSKK
modifications: not checked
In assay [5], B4 displayed a fold lower recovery rate than the GFP10-11 fusion peptide of 1000 times. Further, the Recovery rate (%) in assay [6] worked out at 0.028%. In addition, in assay [7], the Apparent recovery rate (%) amounted to 0.0237% and the Recovered nucleic acid amount (molecules) came to 2.32e+08 molecules.

B5: splitUb(N) (peptide)
peptide: MMQIFVKTLTGKTATLEVEPSDTIENVKAKIQDKEGIPGSGSGSGSKK-{puromycin linker-mRNA}
modifications: reading uncertain; also: mRNA reverse transcribed before assay
With B5, in assay [8], the Apparent recovery rate (%) amounted to 0.931% and the Recovered nucleic acid amount (molecules) worked out at 1.63e+10 molecules. This molecule also came in with a Recovery rate (%) in assay [3] of 1.04%.
